Data on 15 sequences can be found in a protein production outcome set (Wang et al. 2014).

The data set in a line: label from the status in PepcDB records.
Take “MMSSSRRSFMAAGLVVVLAVAALIFGAPGPVPLSAGSSMSDRGAADTAEAPPKSSWAGRQFRDMTLDEKIAQLFVVRIDGEFQNANTPSYRETVALVEEFGAGGLIFGPGTPMTQIAMANDLQAKAERPLLVAQDTEWGVGMRIDAATSFPPAMAIGATRDASHAYRVGYATAREARALGVHQLYAPVADVNNNPKNPIINVRSFGESPSLVGTMASAFTRGAQRGGTLATVKHFPGHGDTDVDSHINLPVLRFDRSRLDSLELPPFRQAFDAGVRSVMTGHLALPEIAADSVPATLSRPLTHGLLREELGFDGLVVTDALNMQAVTRTFGVGETAVRVLEAGADLVLMSTNPHAAHQAVRQAVTSGRIDTTEINDSVRRLLRVKQDLRLHETRRVSLDTTRHRVAQRSHEVLARTVARESLTLLANADSLLPLTPPEQHDALVVTLSDSEYPGTGDTFVDRLRAQPAIETLDTRRLDPRSDSTDVNDHLADAADYDVVVVPSFLRVQAWSGSIGLSDMHHDFLEDLAGTDTPVAFVAFGNPYAPTGLEPAPDAILAAYGSGEASQRAAAQALGGGAGTPGRLPVTIPGVAEKGEGRRLAPVAPREGPPESVGMDGAQLARLDTLLRSAMLDGAFPGAAVAVGRGPALARLDAYGYHTYDETKPVQTGTQYDLASLTKVVATTTAVMKLYEADSLELDAPVARYLPDFAQNGKEAVTVRQLLTHSSGLKPYLDPDERGPTRAALLDTLMAQPLTYTPGTRSTYSGLNAIALMRIVETISGRPFDAFCRTHIFEPLGMDQTGFYDTDVTRAWVAPTTDTAGTRRRGSVHDPMARDMDGVSGNAGLFSTAADLARFGYMLTHEGRIDGRQFLEPKTIETFTAQADVPGSTRALGWDTKSAEGYSSAGDEFSAASFGHTGYTGTSFWVDPAEDLFFVLLTNRVYPDDTADRITQVRPRAADIVHRAIDGPPRPLLPGPAPEQ”: the protein production result was “failed”.

On to “MIPFKDITLADRDTITAFTMKSDRRNCDLSFSNLCSWRFLYDTQFAVIDDFLVFKFWAGEQLAYMMPVGNGDLKAVLRKLIEDADKEKHNFCMLGVCSNMRADLEAILPERFIFTEDRAYADYIYLRSDLATLKGKKFQAKRNHINRFRNTYPDYEYTPITPDRIQECLDLEAEWCKVNNCDQQEGTGNERRALIYALHNFEALGLTGGILHVNGKIVAFTFGMPINHETFGVHVEKADTSIDGAYAMINYEFANRIPEQYIYINREEDLGIEGLRKAKLSYQPVTILEKYMACLKDHPMDMVRW”, for which the protein production result was “not failed”.

On to “MNISEMDSFDVTGFVIRTTNADEVSPSTAKIGELWARFYANAAPKLNEKSKVFGLYTNYGSDFTGAFDVIACSDTLSPEILPDSVKVTVAPGKYVTFSATGEMPQVVIELWGDVWRYFGSESCPYKRAYTTDFEYYKSASEVEISIAIK”, for which the protein production result is reported as “failed”.

Take “KGKSFIWIKRQLDPKVAEEVKALGLENFVFEKELKRHYPMGNLFAHVIGFTDIDGKGQEGLELSLEDSLYGEDGAEVVLRDRQGNIVDSLDSPRNKAPQNGKDIILSLD”: the protein production result is “failed”.

As to “MLKRLSVVHSPNGAPMAPSSHEWTDTLKDVYTARAANADLNARYIPLLPVNQRIQHERDRALANMLRQHLSVPPAQARVLEVGCGSGSNLLDLIRLGFDPANLMGNDLMDSRVEQARHRLPQAVPILAGNALDLDLEREGFDVLYQSTVFTSILDAQARRDLAQRMWHWTKPGGGVLWYDFAYNNPRNPNVRGVPLREVRALFPHARIHTARVTLAPPLARRLPATLYAPVNNLCPFLRTHLLCWIGKPAAP”, the protein production result was “failed”.

“MNWKDKVKTTFYSCDRFVRFVIQHFIQDDCTYIASALAFTSLLAVVPLMSVGLAIFSSFPVFQGLAEPVQNFIFDNFVPATGKIVQSYLQQFTSQVSKLSIWGIVFLIFTALLVMFTIERAMNKIWRVSSSRHGVSAFLLYWAIISLAPVLLGLSLAASSYLFSMPILADHRAPYTILHYSPFFLSLIGFTFLYVVVPNCPVKIRHAFWGGLVAAILFESAKHAFAYYLIRYNTYALLYGAFATVPIFFIWVYWVWIITLLGAEISYAFSVHHQRRGGKSLDGFSHALLWLHQLWLAQQHGKGLSFNDLVDASKQPFAVDVDEMINALIYHELIHATADGHYMLSRDLSHVTLYDLTQLLPYRLPTHLELQYSKASLAEQWRAAFKRHNEELKKSLDINLEELFKKTGTVIK”: the protein production result is recorded as “failed”.

In the case of “MITYPKQMRDSGFKFEFFCDQGGYYQHVMDHLISCTQRQETPVNISNIPKCKAVLVTSLTGEIIKAQGRHLDMLLIVFED”, the protein production entry was “failed”.

Regarding “MEYETILKLFSLVYIIIMMTIDFWIFGLILRREYVRVKGLLIILSIVLMMGLESLALAQLNVLLFISGMLLVLIPLFISFLIKDHSINVNRNWKYGLLLSSVIVFDELAMGYLYGNYFTPLPNPLLTAINNPAYGAMMLGDAIFFLYILRRRSIMEFAITTFAISMAFMPSLYLMDRMLEFIMSILTSLFMIVNIVLLYLTEMRMLTFQGQLVAISLSLFNLLMMLGLTFFASLSNLYFLTLSMIASMVWYFFLIFYNVPAKKISPKPFLFLVLVNLTELAMGFGESVLGFNLTNSLFVNTMNCEMMIGSHMMRSPFNNPFWWLFPINPLTMITMTIMKYNLLGKLVMVPFMTIMTTTMAPFYVIMMGAEMSYLVYERFKKVKTRYLKAWTLGILTGIPIFVVLIPYYTNYYIFGMSGMIFPVTLAPFVISLVVIALFSTLFGRGVYCNLVCMSAHMWSNVFYEQFSAKKNSKFWDYLRWIFLVPLIIAFYLFVMMGLGKIKLPIDPLDFYGMFTLNYIWWFFYFLTPIFGIYSCARQGWCGFGTFNGIFNKVLFKIRAKDVNTCKECVSKECDTSCPVKIPISNDILKKGYSNRISCIVCARCVDACDNVEIVNVVTILKNRESKSF”, the protein production result was “failed”.

With “MAYFHGTGSEPAWKQMELVALIGLAAVLLRGPIAAAWKTVASRSNERKRHQRDPAARVGKGAGSKINLAALQYANLKLALREHRCRRLPRLLVTGNDAAVSRLLPELEEAGWFDTCDALLLSSKTSNEGQPDTAWLKRLYKLRRRRPVDAVIVVTDGAADLPMPRRGTHPYSIRLARIIEILRYAAPVYVVDVAGMDPTVSSDAPIIVCALPNQADASAIEEALLLLRNQLARRGLDQLTQEDRYPYQARLSQRFDTRSKALAKWTAGLIAGQIAVRGIAFAPYPSGTSTKPEMPGSADLPHWRYLSEAARRQPGKRIGWHPMTVCVGFALVAVGLWFAGMLASGWFNSRDVYAAQQAVTEIGSARNPATRLHALLALQQQIERYEYRTQQHAPLLTRFGLNRDADVLAALWQPYVKASRELLVTPVQQNLEATLVDLGQLQTTTLDDKTSQWALSGRDDLKAYLMLAYPERTEADFLAGRLPHDWSTEARITPGEKQALAERLFKFYAQHLKANPDWKIEPRPELVAGARQTLLAVIGARSAQETLYRGILNGAGNKYPDLTLPSLTAGTDARGLLRSAAAVPGVFTRQAYEGYVADAIDAAATRRDVAADWVLTGSQVAAVTATKSADELRAALTEQYFAEYAAHWQDFMNSLQWESAATLPAAIDQLKLLADARQSPAIALMKSLAYQGGAGVQKTSLSDTLVNKAKDILGKKDDAPNSAKAAPAGPLDAAFGPVLRLAGQPGQAGQGGNNDLSLQRYLDRITALRLRLQQVSIGADADDQARQMAQAMFQGKSSDLADTQAYAQLVAASLGAEWAGMGETLFVRPVAQATQAIVLPAQASLNDVWQRFIMAEWNRIFAGRYPFANTTNDASLPELAQFLRPQGGTIQTFLATQLAGVLELQGDQWMPAAGARGITFDPEFLKTINILQRIGAHMLVQGDPQYRFELKPIATPGLTDTKLTIDGQKLHYYNQRETWNRMTWPASNLQDPGTLLQWQTEKAGTNKNYEYGGRFALLRMIGHGHIVPIDSATVQITWPAVPDTRGPLEESTDAQSGKAPYEIRFLMRSEAGQGVLELLPLRGLKLPQRVFLVGKGGAAVDVPSPAARNAKRGGV”, the protein production entry is on record as “failed”.

Turning to “PPNDNIPTPLEKEEKAKEASDNKEKTKETSNSAQNAQNTQASDKTSDNKSTAPKETIKHFTQQLKQEIQEYKPPMSRISMDLFPKELGKVEVIIQKVGKNLKVSVISHNNSLQTFLDNQQDLKNSLNALGFEGVDLSFSQDS”, the protein production entry is “failed”.

In the case of “MKDSVDCPSILPTDRTSVLSETSTLVGSSSHVYSRHAPMNSYHNSMNSNIYHSPKASSPLVSYKTSSPVLLKRATAPVLPSFKPKEQRYNKPQGCSLITAVELGKIIETLPDEKVLLLDVRPFTEHAKSIITNSIHVCLPSTLLRRKNFTFSKLLDNLTPSEQSVLKSKLAIDNLRIIIYDSTANQTESSVSLPCYGIASKLIEFDTNVKKTVSILMCGFPQFKILFPDHINTNTFNSDCISSAEPKSPKTNLMNSLHNTAPHMTATTPLSSPQMNLKLKVPDDSRSDHSNFSSSPSPRNVLSDSPMSSSSPISALFKFQLPAPQTNINQMFKFSQNEEIMGLETYLSAVNIKEEHERWYNNDSAKKSLQNFQFPKNQNSLEKDTNKDKLGFQIRYENLSKNYEKEVIDSVIPEWFQHLMSIPKIELVSQFQKLDFLEKRRLNHSVSFRKKENSFILEKPSSYPEQLTSTSSSTIMPPKFPDVNKVQKRSHSQPIFTQYSKYKSMLSLESDSDSESDDVIISSGVELGAKNRYKDIFPYEHSRVILKKGLQSSKGIKHSHSTSDGGILDNYINANYLSLPRFSVEQNSSFQTTTTTTRRVRYIATQAPMPSTVHDFYTCILNNGVPLVLSLTNDFENGIEKCYRYWQEGNYNGIHVKLLEKKILKMPSTTSMRKNTMGTQNSSLYSAGVQGNSSNYSTDNDNDNDNNNNNNNNSNIPVTAAACDDDDDDDDDAILIRQILLTYHDQEKPYELLQIQVKNWPDLGTLLNPISILQAINVKNHIIDTLFARNYYQNDQLPTILVHCSAGCGRTGTLCTIDSILSNFEMFEMLQKEFVKLKYPAKLFDPISWTINIFRKERISMVQNINQFIFIYDCLLFYFRLRLDDITERTDGDGSNKDNISLSALIEQIEKLEILQTFVDDKLKELPQ”, the protein production result is “failed”.

With “MKLEKLIPWLAGGLAVVGAAIAVIPPSPVRGFDTDAFGRLPVLEGGRVKPVDSVSRNALLMIRGQQSFRYDPDGDGPQKGRTISSDEWILDVLFRPELADQYPVFVINDPEVLGLMGMRQSSNRYFAFSALVPHLEEIQKQAMAAHQVDAKQRTRFQSAIANLFERVYLYYRLKNTVQLAGSPGLAAEVASAGTPGAQQRHQAIEELAYFRPIPPAAGTTGDDWLNMGQALRGAASGQVGDALSGWARLSVAYMAQDPSSFGRAVADVTAADAAARPDSIDLAGHEIVFNRAQPFYAGMVVYVLAMLALFASWLWKPKILQPAAYGLLVAGALIHTLGLVSRVLLQGRPPVTNLYSSAVFVGWGAVVLGVILERIYRKGFATAVAAASGFASLIVAHHLSGDGDTMEMMRAVLDSNFWLATHVVTITIGYSGTFLAGAMAIGYTLRKHLVRKPDPGTTKALMGMTYGVICFALFFSFLGTVLGGIWADQSWGRFWGWDPKENGALLIVLWNAIILHARWGGFVRERGIMAMAIFGNVITSLSWFGVNMLGVGLHSYGFMDSAFWALTGFIASQLAIMAFTLLPAQFWRTAHAAGKQQEPSPEPGH”, the protein production entry is listed as “failed”.

Turning to “MIKETVFKSFDTPSALEQQLASKIASQLQEAVDARGKASLVVSGGSTPLKLFQLLSMKSIDWSDVYITLADERWVEADADASNERLVREHLLQNRASNAKFRGLKNMFSTAEAGADMAAESLSNFPRPFDVVVLGMGNDGHTCSWFPCSAELENALTTQALCVATNPTTAPHGRITLSKSAILNSRQIYLHLVGEQKLSVYRQALESDDVHAMPIRAVLAQRKTPVDVFWSA”, the protein production result was “not failed”.

As for “MQNTIIQKAVNKDLNSILEITKDALNAMKTMNFHQWDENYPNEIVFQEDIQAQELYVFKENDEILGFICINEKFKPEFYKQVIFNKNYDDKAFYLHRLAVKQNAKGKGVAQKLLNFCENFALENHKASLRADTHSKNFPMNSLFKKLDFNFCGNFDIPNYQ”, the protein production result was “failed”.

“EAQRELTEMEARTRLTTEMMPAHIAHVGRDLRYTYSNRRLSQVIPGRPSDILGLTGREALGEGLFARIRPCLLRALEGEASVLEFSDEDSGSRIRAAFTPDRTGDGPINGVYILSMDVT”: the protein production result was “failed”.
